# Reference: patent US20180155450A1 (Sanofi, published 2018)
# T1: recombinant human IL4 (human, UniProt P05112 25-153)
# T1 construct: bought; also called Antigen1
# T1 sequence (looked up): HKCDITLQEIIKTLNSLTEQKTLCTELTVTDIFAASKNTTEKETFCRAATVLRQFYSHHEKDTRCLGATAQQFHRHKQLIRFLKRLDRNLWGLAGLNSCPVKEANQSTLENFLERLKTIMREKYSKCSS
# B1: CODV-Ig Batch ID 207 (IL4 × IL13 on HC; L1=5, L2=3, L3=2, L4=0) (bispecific antibody)
# chain 1: not shown
# chain 2: DIVLTQSPASLAVSLGQRATISCRASESVDSYGQSYMHWYQQKAGQPPKLLIYLASNLESGVPARFSGSGSRTDFTLTIDPVQAEDAATYYCQQNAEDSRTFGGGTKLEIKGGGGGDIQMTQSPASLSVSVGDTITLTCHASQNIDVWLSWFQQKPGNIPKLLIYKASNLHTGVPSRFSGSGSGTGFTLTISSLQPEDIATYYCQQAHSYPFTFGGGTKLEIKGGGRTVAAPSVFIFPPSDEQLKSGTASVVCLLNNFYPREAKVQWKVDNALQSGNSQESVTEQDSKDSTYSLSSTLTLSKADYEKHKVYACEVTHQGLSSPVTKSFNRGEC
# B2: CODV-Ig Batch ID 213 (IL4 × IL13 on HC; L1=5, L2=3, L3=2, L4=2) (bispecific antibody)
# chain 1: not shown
# chain 2: DIVLTQSPASLAVSLGQRATISCRASESVDSYGQSYMHWYQQKAGQPPKLLIYLASNLESGVPARFSGSGSRTDFTLTIDPVQAEDAATYYCQQNAEDSRTFGGGTKLEIKGGGGGDIQMTQSPASLSVSVGDTITLTCHASQNIDVWLSWFQQKPGNIPKLLIYKASNLHTGVPSRFSGSGSGTGFTLTISSLQPEDIATYYCQQAHSYPFTFGGGTKLEIKGGGRTVAAPSVFIFPPSDEQLKSGTASVVCLLNNFYPREAKVQWKVDNALQSGNSQESVTEQDSKDSTYSLSSTLTLSKADYEKHKVYACEVTHQGLSSPVTKSFNRGEC
# B3: CODV-Ig Batch ID 219 (IL4 × IL13 on HC; L1=3, L2=6, L3=3, L4=0) (bispecific antibody)
# chain 1: not shown
# chain 2: DIVLTQSPASLAVSLGQRATISCRASESVDSYGQSYMHWYQQKAGQPPKLLIYLASNLESGVPARFSGSGSRTDFTLTIDPVQAEDAATYYCQQNAEDSRTFGGGTKLEIKGGGDIQMTQSPASLSVSVGDTITLTCHASQNIDVWLSWFQQKPGNIPKLLIYKASNLHTGVPSRFSGSGSGTGFTLTISSLQPEDIATYYCQQAHSYPFTFGGGTKLEIKGGGGGGRTVAAPSVFIFPPSDEQLKSGTASVVCLLNNFYPREAKVQWKVDNALQSGNSQESVTEQDSKDSTYSLSSTLTLSKADYEKHKVYACEVTHQGLSSPVTKSFNRGEC
# B4: CODV-Ig Batch ID 225 (IL4 × IL13 on HC; L1=3, L2=6, L3=3, L4=2) (bispecific antibody)
# chain 1: not shown
# chain 2: DIVLTQSPASLAVSLGQRATISCRASESVDSYGQSYMHWYQQKAGQPPKLLIYLASNLESGVPARFSGSGSRTDFTLTIDPVQAEDAATYYCQQNAEDSRTFGGGTKLEIKGGGDIQMTQSPASLSVSVGDTITLTCHASQNIDVWLSWFQQKPGNIPKLLIYKASNLHTGVPSRFSGSGSGTGFTLTISSLQPEDIATYYCQQAHSYPFTFGGGTKLEIKGGGGGGRTVAAPSVFIFPPSDEQLKSGTASVVCLLNNFYPREAKVQWKVDNALQSGNSQESVTEQDSKDSTYSLSSTLTLSKADYEKHKVYACEVTHQGLSSPVTKSFNRGEC
# B5: CODV-Ig Batch ID 208 (IL4 × IL13 on HC; L1=5, L2=5, L3=2, L4=0) (bispecific antibody)
# heavy: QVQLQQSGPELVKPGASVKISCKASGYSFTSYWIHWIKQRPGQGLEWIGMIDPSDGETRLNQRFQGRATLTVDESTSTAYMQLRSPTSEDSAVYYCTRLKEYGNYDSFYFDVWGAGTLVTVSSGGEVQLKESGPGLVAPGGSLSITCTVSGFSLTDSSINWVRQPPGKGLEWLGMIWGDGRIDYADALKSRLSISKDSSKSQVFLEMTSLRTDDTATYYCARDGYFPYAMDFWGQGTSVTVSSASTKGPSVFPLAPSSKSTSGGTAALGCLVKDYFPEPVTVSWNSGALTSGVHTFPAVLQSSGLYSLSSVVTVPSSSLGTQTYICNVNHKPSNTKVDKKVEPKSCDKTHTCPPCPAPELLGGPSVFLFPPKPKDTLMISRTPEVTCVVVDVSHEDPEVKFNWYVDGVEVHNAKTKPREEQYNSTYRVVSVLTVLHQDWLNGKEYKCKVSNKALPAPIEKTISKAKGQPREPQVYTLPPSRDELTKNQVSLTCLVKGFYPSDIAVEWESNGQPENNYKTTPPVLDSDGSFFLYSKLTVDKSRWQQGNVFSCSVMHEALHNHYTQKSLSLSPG
# light: DIVLTQSPASLAVSLGQRATISCRASESVDSYGQSYMHWYQQKAGQPPKLLIYLASNLESGVPARFSGSGSRTDFTLTIDPVQAEDAATYYCQQNAEDSRTFGGGTKLEIKGGGGGDIQMTQSPASLSVSVGDTITLTCHASQNIDVWLSWFQQKPGNIPKLLIYKASNLHTGVPSRFSGSGSGTGFTLTISSLQPEDIATYYCQQAHSYPFTFGGGTKLEIKGGGGGRTVAAPSVFIFPPSDEQLKSGTASVVCLLNNFYPREAKVQWKVDNALQSGNSQESVTEQDSKDSTYSLSSTLTLSKADYEKHKVYACEVTHQGLSSPVTKSFNRGEC
# notes: IgG1 CODV-Ig, heavy chain as template; L4 = 0 (no linker)
# B6: CODV-Ig Batch ID 232 (IL4 × IL13 on HC; L1=5, L2=5, L3=5, L4=0) (bispecific antibody)
# heavy: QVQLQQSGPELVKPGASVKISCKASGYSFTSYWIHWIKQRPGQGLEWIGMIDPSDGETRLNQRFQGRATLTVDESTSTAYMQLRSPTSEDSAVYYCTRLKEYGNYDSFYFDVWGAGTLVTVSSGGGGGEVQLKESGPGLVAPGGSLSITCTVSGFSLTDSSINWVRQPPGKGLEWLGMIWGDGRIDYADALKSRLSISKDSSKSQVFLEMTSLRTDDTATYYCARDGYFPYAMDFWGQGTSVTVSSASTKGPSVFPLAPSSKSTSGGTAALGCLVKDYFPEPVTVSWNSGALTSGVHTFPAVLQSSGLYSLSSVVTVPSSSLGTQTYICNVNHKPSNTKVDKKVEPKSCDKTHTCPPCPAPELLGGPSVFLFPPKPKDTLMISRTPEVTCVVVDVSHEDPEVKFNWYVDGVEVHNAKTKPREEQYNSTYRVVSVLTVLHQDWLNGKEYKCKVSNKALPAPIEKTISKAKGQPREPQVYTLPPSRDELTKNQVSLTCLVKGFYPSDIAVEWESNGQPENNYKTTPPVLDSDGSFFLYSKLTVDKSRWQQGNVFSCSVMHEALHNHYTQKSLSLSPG
# light: DIVLTQSPASLAVSLGQRATISCRASESVDSYGQSYMHWYQQKAGQPPKLLIYLASNLESGVPARFSGSGSRTDFTLTIDPVQAEDAATYYCQQNAEDSRTFGGGTKLEIKGGGGGDIQMTQSPASLSVSVGDTITLTCHASQNIDVWLSWFQQKPGNIPKLLIYKASNLHTGVPSRFSGSGSGTGFTLTISSLQPEDIATYYCQQAHSYPFTFGGGTKLEIKGGGGGRTVAAPSVFIFPPSDEQLKSGTASVVCLLNNFYPREAKVQWKVDNALQSGNSQESVTEQDSKDSTYSLSSTLTLSKADYEKHKVYACEVTHQGLSSPVTKSFNRGEC
# notes: as for B5
# B7: CODV-Ig Batch ID 214 (IL4 × IL13 on HC; L1=5, L2=5, L3=2, L4=2) (bispecific antibody)
# chain 1: not shown
# chain 2: DIVLTQSPASLAVSLGQRATISCRASESVDSYGQSYMHWYQQKAGQPPKLLIYLASNLESGVPARFSGSGSRTDFTLTIDPVQAEDAATYYCQQNAEDSRTFGGGTKLEIKGGGGGDIQMTQSPASLSVSVGDTITLTCHASQNIDVWLSWFQQKPGNIPKLLIYKASNLHTGVPSRFSGSGSGTGFTLTISSLQPEDIATYYCQQAHSYPFTFGGGTKLEIKGGGGGRTVAAPSVFIFPPSDEQLKSGTASVVCLLNNFYPREAKVQWKVDNALQSGNSQESVTEQDSKDSTYSLSSTLTLSKADYEKHKVYACEVTHQGLSSPVTKSFNRGEC
# B8: CODV-Ig Batch ID 209 (IL4 × IL13 on HC; L1=7, L2=3, L3=2, L4=0) (bispecific antibody)
# chain 1: not shown
# chain 2: DIVLTQSPASLAVSLGQRATISCRASESVDSYGQSYMHWYQQKAGQPPKLLIYLASNLESGVPARFSGSGSRTDFTLTIDPVQAEDAATYYCQQNAEDSRTFGGGTKLEIKGGGGGGGDIQMTQSPASLSVSVGDTITLTCHASQNIDVWLSWFQQKPGNIPKLLIYKASNLHTGVPSRFSGSGSGTGFTLTISSLQPEDIATYYCQQAHSYPFTFGGGTKLEIKGGGRTVAAPSVFIFPPSDEQLKSGTASVVCLLNNFYPREAKVQWKVDNALQSGNSQESVTEQDSKDSTYSLSSTLTLSKADYEKHKVYACEVTHQGLSSPVTKSFNRGEC
# B9: CODV-Ig Batch ID 215 (IL4 × IL13 on HC; L1=7, L2=3, L3=2, L4=2) (bispecific antibody)
# chain 1: not shown
# chain 2: DIVLTQSPASLAVSLGQRATISCRASESVDSYGQSYMHWYQQKAGQPPKLLIYLASNLESGVPARFSGSGSRTDFTLTIDPVQAEDAATYYCQQNAEDSRTFGGGTKLEIKGGGGGGGDIQMTQSPASLSVSVGDTITLTCHASQNIDVWLSWFQQKPGNIPKLLIYKASNLHTGVPSRFSGSGSGTGFTLTISSLQPEDIATYYCQQAHSYPFTFGGGTKLEIKGGGRTVAAPSVFIFPPSDEQLKSGTASVVCLLNNFYPREAKVQWKVDNALQSGNSQESVTEQDSKDSTYSLSSTLTLSKADYEKHKVYACEVTHQGLSSPVTKSFNRGEC
# B10: CODV-Ig Batch ID 210 (IL4 × IL13 on HC; L1=7, L2=5, L3=2, L4=0) (bispecific antibody)
# heavy: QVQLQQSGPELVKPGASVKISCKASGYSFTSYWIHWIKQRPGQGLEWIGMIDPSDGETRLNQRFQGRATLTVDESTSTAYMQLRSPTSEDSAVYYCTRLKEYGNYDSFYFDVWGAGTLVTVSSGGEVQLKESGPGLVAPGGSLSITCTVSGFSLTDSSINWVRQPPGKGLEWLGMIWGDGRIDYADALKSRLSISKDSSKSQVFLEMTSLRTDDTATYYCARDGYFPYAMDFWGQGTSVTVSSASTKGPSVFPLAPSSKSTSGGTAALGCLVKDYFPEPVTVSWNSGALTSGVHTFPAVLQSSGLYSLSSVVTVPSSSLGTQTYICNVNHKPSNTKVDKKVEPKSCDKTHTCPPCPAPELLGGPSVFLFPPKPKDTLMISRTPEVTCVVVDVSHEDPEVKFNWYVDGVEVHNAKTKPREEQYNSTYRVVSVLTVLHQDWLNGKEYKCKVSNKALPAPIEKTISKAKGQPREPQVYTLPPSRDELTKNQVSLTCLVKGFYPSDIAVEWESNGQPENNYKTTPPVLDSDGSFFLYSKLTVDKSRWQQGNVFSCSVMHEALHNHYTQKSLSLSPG
# light: DIVLTQSPASLAVSLGQRATISCRASESVDSYGQSYMHWYQQKAGQPPKLLIYLASNLESGVPARFSGSGSRTDFTLTIDPVQAEDAATYYCQQNAEDSRTFGGGTKLEIKGGGGGGGDIQMTQSPASLSVSVGDTITLTCHASQNIDVWLSWFQQKPGNIPKLLIYKASNLHTGVPSRFSGSGSGTGFTLTISSLQPEDIATYYCQQAHSYPFTFGGGTKLEIKGGGGGRTVAAPSVFIFPPSDEQLKSGTASVVCLLNNFYPREAKVQWKVDNALQSGNSQESVTEQDSKDSTYSLSSTLTLSKADYEKHKVYACEVTHQGLSSPVTKSFNRGEC
# notes: as for B5
# B11: CODV-Ig Batch ID 204 (IL4 × IL13 on HC; L1=7, L2=5, L3=1, L4=2) (bispecific antibody, IgG1)
# heavy: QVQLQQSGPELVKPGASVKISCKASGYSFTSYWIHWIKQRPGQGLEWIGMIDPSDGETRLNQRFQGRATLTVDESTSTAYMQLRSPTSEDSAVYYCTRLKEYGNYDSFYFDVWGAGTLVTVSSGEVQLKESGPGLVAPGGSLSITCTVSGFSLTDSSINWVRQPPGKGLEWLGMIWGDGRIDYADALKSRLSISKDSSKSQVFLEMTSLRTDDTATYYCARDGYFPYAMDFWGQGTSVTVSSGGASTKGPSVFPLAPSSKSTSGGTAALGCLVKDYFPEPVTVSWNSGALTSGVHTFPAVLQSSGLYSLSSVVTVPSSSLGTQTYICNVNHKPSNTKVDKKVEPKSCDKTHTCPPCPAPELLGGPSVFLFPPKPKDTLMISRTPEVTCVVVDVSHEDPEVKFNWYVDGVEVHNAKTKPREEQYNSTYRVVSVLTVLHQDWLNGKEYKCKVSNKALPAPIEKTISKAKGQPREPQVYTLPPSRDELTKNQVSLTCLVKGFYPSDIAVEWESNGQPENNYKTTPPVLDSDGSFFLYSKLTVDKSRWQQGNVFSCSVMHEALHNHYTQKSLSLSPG
# light: DIVLTQSPASLAVSLGQRATISCRASESVDSYGQSYMHWYQQKAGQPPKLLIYLASNLESGVPARFSGSGSRTDFTLTIDPVQAEDAATYYCQQNAEDSRTFGGGTKLEIKGGGGGGGDIQMTQSPASLSVSVGDTITLTCHASQNIDVWLSWFQQKPGNIPKLLIYKASNLHTGVPSRFSGSGSGTGFTLTISSLQPEDIATYYCQQAHSYPFTFGGGTKLEIKGGGGGRTVAAPSVFIFPPSDEQLKSGTASVVCLLNNFYPREAKVQWKVDNALQSGNSQESVTEQDSKDSTYSLSSTLTLSKADYEKHKVYACEVTHQGLSSPVTKSFNRGEC
# notes: IgG1 CODV-Ig, heavy chain as template
# B12: CODV-Ig Batch ID 234 (IL4 × IL13 on HC; L1=7, L2=5, L3=5, L4=0) (bispecific antibody)
# heavy: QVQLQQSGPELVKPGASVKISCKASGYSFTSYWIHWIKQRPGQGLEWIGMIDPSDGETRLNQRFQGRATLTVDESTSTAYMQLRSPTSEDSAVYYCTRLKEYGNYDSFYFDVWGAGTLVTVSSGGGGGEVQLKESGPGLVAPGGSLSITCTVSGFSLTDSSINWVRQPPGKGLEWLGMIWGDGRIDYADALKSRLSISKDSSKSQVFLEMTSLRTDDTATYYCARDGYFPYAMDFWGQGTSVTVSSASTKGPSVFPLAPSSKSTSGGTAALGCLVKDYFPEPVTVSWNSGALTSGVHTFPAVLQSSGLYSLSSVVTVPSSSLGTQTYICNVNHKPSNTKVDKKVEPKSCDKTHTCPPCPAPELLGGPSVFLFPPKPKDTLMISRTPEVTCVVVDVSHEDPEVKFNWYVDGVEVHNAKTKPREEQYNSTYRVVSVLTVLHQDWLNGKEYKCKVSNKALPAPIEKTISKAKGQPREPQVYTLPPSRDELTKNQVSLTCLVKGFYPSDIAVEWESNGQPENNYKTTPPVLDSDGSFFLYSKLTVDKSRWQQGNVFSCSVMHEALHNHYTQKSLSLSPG
# light: DIVLTQSPASLAVSLGQRATISCRASESVDSYGQSYMHWYQQKAGQPPKLLIYLASNLESGVPARFSGSGSRTDFTLTIDPVQAEDAATYYCQQNAEDSRTFGGGTKLEIKGGGGGGGDIQMTQSPASLSVSVGDTITLTCHASQNIDVWLSWFQQKPGNIPKLLIYKASNLHTGVPSRFSGSGSGTGFTLTISSLQPEDIATYYCQQAHSYPFTFGGGTKLEIKGGGGGRTVAAPSVFIFPPSDEQLKSGTASVVCLLNNFYPREAKVQWKVDNALQSGNSQESVTEQDSKDSTYSLSSTLTLSKADYEKHKVYACEVTHQGLSSPVTKSFNRGEC
# notes: as for B5
# B13: CODV-Ig Batch ID 216 (IL4 × IL13 on HC; L1=7, L2=5, L3=2, L4=2) (bispecific antibody)
# chain 1: not shown
# chain 2: DIVLTQSPASLAVSLGQRATISCRASESVDSYGQSYMHWYQQKAGQPPKLLIYLASNLESGVPARFSGSGSRTDFTLTIDPVQAEDAATYYCQQNAEDSRTFGGGTKLEIKGGGGGGGDIQMTQSPASLSVSVGDTITLTCHASQNIDVWLSWFQQKPGNIPKLLIYKASNLHTGVPSRFSGSGSGTGFTLTISSLQPEDIATYYCQQAHSYPFTFGGGTKLEIKGGGGGRTVAAPSVFIFPPSDEQLKSGTASVVCLLNNFYPREAKVQWKVDNALQSGNSQESVTEQDSKDSTYSLSSTLTLSKADYEKHKVYACEVTHQGLSSPVTKSFNRGEC
# B14: CODV-Ig Batch ID 222 (IL4 × IL13 on HC; L1=6, L2=6, L3=3, L4=0) (bispecific antibody)
# chain 1: not shown
# chain 2: DIVLTQSPASLAVSLGQRATISCRASESVDSYGQSYMHWYQQKAGQPPKLLIYLASNLESGVPARFSGSGSRTDFTLTIDPVQAEDAATYYCQQNAEDSRTFGGGTKLEIKGGGGGGDIQMTQSPASLSVSVGDTITLTCHASQNIDVWLSWFQQKPGNIPKLLIYKASNLHTGVPSRFSGSGSGTGFTLTISSLQPEDIATYYCQQAHSYPFTFGGGTKLEIKGGGGGGRTVAAPSVFIFPPSDEQLKSGTASVVCLLNNFYPREAKVQWKVDNALQSGNSQESVTEQDSKDSTYSLSSTLTLSKADYEKHKVYACEVTHQGLSSPVTKSFNRGEC
# B15: CODV-Ig Batch ID 228 (IL4 × IL13 on HC; L1=6, L2=6, L3=3, L4=2) (bispecific antibody)
# chain 1: not shown
# chain 2: DIVLTQSPASLAVSLGQRATISCRASESVDSYGQSYMHWYQQKAGQPPKLLIYLASNLESGVPARFSGSGSRTDFTLTIDPVQAEDAATYYCQQNAEDSRTFGGGTKLEIKGGGGGGDIQMTQSPASLSVSVGDTITLTCHASQNIDVWLSWFQQKPGNIPKLLIYKASNLHTGVPSRFSGSGSGTGFTLTISSLQPEDIATYYCQQAHSYPFTFGGGTKLEIKGGGGGGRTVAAPSVFIFPPSDEQLKSGTASVVCLLNNFYPREAKVQWKVDNALQSGNSQESVTEQDSKDSTYSLSSTLTLSKADYEKHKVYACEVTHQGLSSPVTKSFNRGEC
# Assays:
# recombinant human IL4 = target: T1, recombinant human IL4; assay: SPR (Biacore 3000), captured CODV-Ig, antigen as analyte;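 further: kd derived from kinetic fits in BIAevaluation 4.1, with signals referenced against a flow cell lacking captured antibody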
# Experimental: (§1) Kinetic binding analysis by Biacore was performed as follows. Surface plasmon resonance technology on a Biacore 3000 (GE Healthcare) was used for detailed kinetic characterization of purified antibodies. […] Chip surfaces were regenerated with 10 mM glycine pH 2.5. Kinetic parameters were analyzed and calculated in the BIAevaluation program package v4.1 using a flow cell without captured antibody as a reference.
# recombinant human IL13 = target: T2, recombinant human IL13 (human, UniProt P35225 35-146, limits assumed); assay: as above
# T2 construct: bought; also called Antigen2
# T2 sequence (P35225 35-146 limits assumed): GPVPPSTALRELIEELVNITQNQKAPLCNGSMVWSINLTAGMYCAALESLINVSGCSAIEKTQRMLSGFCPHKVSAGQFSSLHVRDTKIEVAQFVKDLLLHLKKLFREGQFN
# Experimental: as §1
Binder,Kd (recombinant human IL4),Kd (recombinant human IL13)
B1,0.003 nM,0.033 nM
B2,0.005 nM,0.027 nM
B3,0.008 nM,0.071 nM
B4,0.006 nM,0.068 nM
B5,0.01 nM,–
B6,0.008 nM,–
B7,0.01 nM,0.053 nM
B8,0.005 nM,0.047 nM
B9,0.004 nM,0.05 nM
B10,0.004 nM,–
B11,0.003 nM,–
B12,0.003 nM,–
B13,0.011 nM,0.04 nM
B14,0.007 nM,0.053 nM
B15,0.007 nM,0.044 nM
